Measurements reported in publication PMC10540216, “Activity Guided Azide-methyllysine Photo-trapping for Substrate Profiling of Lysine Demethylases” (Journal of the American Chemical Society, 2023).

B1: TF3C4_HUMAN (protein, UniProt Q9UKN8 1-822, looked up)
General transcription factor …: MNTADQARVGPADDGPAPSGEEEGEGGGEAGGKEPAADAAPGPSAAFRLMVTRREPAVKLQYAVSGLEPLAWSEDHRVSVSTARSIAVLELICDVHNPGQDLVIHRTSVPAPLNSCLLKVGSKTEVAECKEKFAASKDPTVSQTFMLDRVFNPEGKALPPMRGFKYTSWSPMGCDANGRCLLAALTMDNRLTIQANLNRLQWVQLVDLTEIYGERLYETSYRLSKNEAPEGNLGDFAEFQRRHSMQTPVRMEWSGICTTQQVKHNNECRDVGSVLLAVLFENGNIAVWQFQLPFVGKESISSCNTIESGITSPSVLFWWEYEHNNRKMSGLIVGSAFGPIKILPVNLKAVKGYFTLRQPVILWKEMDQLPVHSIKCVPLYHPYQKCSCSLVVAARGSYVFWCLLLISKAGLNVHNSHVTGLHSLPIVSMTADKQNGTVYTCSSDGKVRQLIPIFTDVALKFEHQLIKLSDVFGSVRTHGIAVSPCGAYLAIITTEGMINGLHPVNKNYQVQFVTLKTFEEAAAQLLESSVQNLFKQVDLIDLVRWKILKDKHIPQFLQEALEKKIESSGVTYFWRFKLFLLRILYQSMQKTPSEALWKPTHEDSKILLVDSPGMGNADDEQQEEGTSSKQVVKQGLQERSKEGDVEEPTDDSLPTTGDAGGREPMEEKLLEIQGKIEAVEMHLTREHMKRVLGEVYLHTWITENTSIPTRGLCNFLMSDEEYDDRTARVLIGHISKKMNKQTFPEHCSLCKEILPFTDRKQAVCSNGHIWLRCFLTYQSCQSLIYRRCLLHDSIARHPAPEDPDWIKRLLQSPCPFCDSPVF
B2: TIF1B_HUMAN (protein, UniProt Q13263 2-835, looked up)
Transcription intermediary …: AASAAAASAAAASAASGSPGPGEGSAGGEKRSTAPSAAASASASAAASSPAGGGAEALELLEHCGVCRERLRPEREPRLLPCLHSACSACLGPAAPAAANSSGDGGAAGDGTVVDCPVCKQQCFSKDIVENYFMRDSGSKAATDAQDANQCCTSCEDNAPATSYCVECSEPLCETCVEAHQRVKYTKDHTVRSTGPAKSRDGERTVYCNVHKHEPLVLFCESCDTLTCRDCQLNAHKDHQYQFLEDAVRNQRKLLASLVKRLGDKHATLQKSTKEVRSSIRQVSDVQKRVQVDVKMAILQIMKELNKRGRVLVNDAQKVTEGQQERLERQHWTMTKIQKHQEHILRFASWALESDNNTALLLSKKLIYFQLHRALKMIVDPVEPHGEMKFQWDLNAWTKSAEAFGKIVAERPGTNSTGPAPMAPPRAPGPLSKQGSGSSQPMEVQEGYGFGSGDDPYSSAEPHVSGVKRSRSGEGEVSGLMRKVPRVSLERLDLDLTADSQPPVFKVFPGSTTEDYNLIVIERGAAAAATGQPGTAPAGTPGAPPLAGMAIVKEEETEAAIGAPPTATEGPETKPVLMALAEGPGAEGPRLASPSGSTSSGLEVVAPEGTSAPGGGPGTLDDSATICRVCQKPGDLVMCNQCEFCFHLDCHLPALQDVPGEEWSCSLCHVLPDLKEEDGSLSLDGADSTGVVAKLSPANQRKCERVLLALFCHEPCRPLHQLATDSTFSLDQPGGTLDLTLIRARLQEKLSPPYSSPQEFAQDVGRMFKQFNKLTEDKADVQSIIGLQRFFETRMNEAFGDTKFSAVLVEPPPMSLPGAGLSSQELSGGPGDGP
B3: ZC3HE_HUMAN (protein, UniProt Q6PJT7 1-736, looked up)
Zinc finger CCCH …: MEIGTEISRKIRSAIKGKLQELGAYVDEELPDYIMVMVANKKSQDQMTEDLSLFLGNNTIRFTVWLHGVLDKLRSVTTEPSSLKSSDTNIFDSNVPSNKSNFSRGDERRHEAAVPPLAIPSARPEKRDSRVSTSSQESKTTNVRQTYDDGAATRLMSTVKPLREPAPSEDVIDIKPEPDDLIDEDLNFVQENPLSQKKPTVTLTYGSSRPSIEIYRPPASRNADSGVHLNRLQFQQQQNSIHAAKQLDMQSSWVYETGRLCEPEVLNSLEETYSPFFRNNSEKMSMEDENFRKRKLPVVSSVVKVKKFNHDGEEEEEDDDYGSRTGSISSSVSVPAKPERRPSLPPSKQANKNLILKAISEAQESVTKTTNYSTVPQKQTLPVAPRTRTSQEELLAEVVQGQSRTPRISPPIKEEETKGDSVEKNQGTQQRQLLSRLQIDPVMAETLQMSQDYYDMESMVHADTRSFILKKPKLSEEVVVAPNQESGMKTADSLRVLSGHLMQTRDLVQPDKPASPKFIVTLDGVPSPPGYMSDQEEDMCFEGMKPVNQTAASNKGLRGLLHPQQLHLLSRQLEDPNGSFSNAEMSELSVAQKPEKLLERCKYWPACKNGDECAYHHPISPCKAFPNCKFAEKCLFVHPNCKYDAKCTKPDCPFTHVSRRIPVLSPKPAVAPPAPPSSSQLCRYFPACKKMECPFYHPKHCRFNTQCTRPDCTFYHPTINVPPRHALKWIRPQTSE
B4: RNZ2_HUMAN (protein, UniProt Q9BQ52 17-826, looked up)
Zinc phosphodiesterase ELAC …: SQGRTISQAPARRERPRKDPLRHLRTREKRGPSGCSGGPNTVYLQVVAAGSRDSGAALYVFSEFNRYLFNCGEGVQRLMQEHKLKVARLDNIFLTRMHWSNVGGLSGMILTLKETGLPKCVLSGPPQLEKYLEAIKIFSGPLKGIELAVRPHSAPEYEDETMTVYQIPIHSEQRRGKHQPWQSPERPLSRLSPERSSDSESNENEPHLPHGVSQRRGVRDSSLVVAFICKLHLKRGNFLVLKAKEMGLPVGTAAIAPIIAAVKDGKSITHEGREILAEELCTPPDPGAAFVVVECPDESFIQPICENATFQRYQGKADAPVALVVHMAPASVLVDSRYQQWMERFGPDTQHLVLNENCASVHNLRSHKIQTQLNLIHPDIFPLLTSFRCKKEGPTLSVPMVQGECLLKYQLRPRREWQRDAIITCNPEEFIVEALQLPNFQQSVQEYRRSAQDGPAPAEKRSQYPEIIFLGTGSAIPMKIRNVSATLVNISPDTSLLLDCGEGTFGQLCRHYGDQVDRVLGTLAAVFVSHLHADHHTGLPSILLQRERALASLGKPLHPLLVVAPNQLKAWLQQYHNQCQEVLHHISMIPAKCLQEGAEISSPAVERLISSLLRTCDLEEFQTCLVRHCKHAFGCALVHTSGWKVVYSGDTMPCEALVRMGKDATLLIHEATLEDGLEEEAVEKTHSTTSQAISVGMRMNAEFIMLNHFSQRYAKVPLFSPNFSEKVGVAFDHMKVCFGDFPTMPKLIPPLKALFAGDIEEMEERREKRELRQVRAALLSRELAGGLEDGEPQQKRAHTEEPQAKKVRAQ
B5: FIP1_HUMAN (protein, UniProt Q6UN15 1-594, looked up)
Pre-mRNA 3'-end-processing …: MSAGEVERLVSELSGGTGGDEEEEWLYGGPWDVHVHSDLAKDLDENEVERPEEENASANPPSGIEDETAENGVPKPKVTETEDDSDSDSDDDEDDVHVTIGDIKTGAPQYGSYGTAPVNLNIKTGGRVYGTTGTKVKGVDLDAPGSINGVPLLEVDLDSFEDKPWRKPGADLSDYFNYGFNEDTWKAYCEKQKRIRMGLEVIPVTSTTNKITAEDCTMEVTPGAEIQDGRFNLFKVQQGRTGNSEKETALPSTKAEFTSPPSLFKTGLPPSRNSTSSQSQTSTASRKANSSVGKWQDRYGRAESPDLRRLPGAIDVIGQTITISRVEGRRRANENSNIQVLSERSATEVDNNFSKPPPFFPPGAPPTHLPPPPFLPPPPTVSTAPPLIPPPGFPPPPGAPPPSLIPTIESGHSSGYDSRSARAFPYGNVAFPHLPGSAPSWPSLVDTSKQWDYYARREKDRDRERDRDRERDRDRDRERERTRERERERDHSPTPSVFNSDEERYRYREYAERGYERHRASREKEERHRERRHREKEETRHKSSRSNSRRRHESEEGDSHRRHKHKKSKRSKEGKEAGSEPAPEQESTEATPAE
B6: MCM3_HUMAN (protein, UniProt P25205 2-808, looked up)
DNA replication licensing …: AGTVVLDDVELREAQRDYLDFLDDEEDQGIYQSKVRELISDNQYRLIVNVNDLRRKNEKRANRLLNNAFEELVAFQRALKDFVASIDATYAKQYEEFYVGLEGSFGSKHVSPRTLTSCFLSCVVCVEGIVTKCSLVRPKVVRSVHYCPATKKTIERRYSDLTTLVAFPSSSVYPTKDEENNPLETEYGLSVYKDHQTITIQEMPEKAPAGQLPRSVDVILDDDLVDKAKPGDRVQVVGTYRCLPGKKGGYTSGTFRTVLIACNVKQMSKDAQPSFSAEDIAKIKKFSKTRSKDIFDQLAKSLAPSIHGHDYVKKAILCLLLGGVERDLENGSHIRGDINILLIGDPSVAKSQLLRYVLCTAPRAIPTTGRGSSGVGLTAAVTTDQETGERRLEAGAMVLADRGVVCIDEFDKMSDMDRTAIHEVMEQGRVTIAKAGIHARLNARCSVLAAANPVYGRYDQYKTPMENIGLQDSLLSRFDLLFIMLDQMDPEQDREISDHVLRMHRYRAPGEQDGDAMPLGSAVDILATDDPNFSQEDQQDTQIYEKHDNLLHGTKKKKEKMVSAAFMKKYIHVAKIIKPVLTQESATYIAEEYSRLRSQDSMSSDTARTSPVTARTLETLIRLATAHAKARMSKTVDLQDAEEAVELVQYAYFKKVLEKEKKRKKRSEDESETEDEEEKSQEDQEQKRKRRKTRQPDAKDGDSYDPYDFSDTEEEMPQVHTPKTADSQETKESQKVELSESRLKAFKVALLDVFREAHAQSIGMNRLTESINRDSEEPFSSVEIQAALSKMQDDNQVMVSEGIIFLI
B7: PLOD3_HUMAN (protein, UniProt O60568 25-738, looked up)
Multifunctional procollagen …: SDRPRGRDPVNPEKLLVITVATAETEGYLRFLRSAEFFNYTVRTLGLGEEWRGGDVARTVGGGQKVRWLKKEMEKYADREDMIIMFVDSYDVILAGSPTELLKKFVQSGSRLLFSAESFCWPEWGLAEQYPEVGTGKRFLNSGGFIGFATTIHQIVRQWKYKDDDDDQLFYTRLYLDPGLREKLSLNLDHKSRIFQNLNGALDEVVLKFDRNRVRIRNVAYDTLPIVVHGNGPTKLQLNYLGNYVPNGWTPEGGCGFCNQDRRTLPGGQPPPRVFLAVFVEQPTPFLPRFLQRLLLLDYPPDRVTLFLHNNEVFHEPHIADSWPQLQDHFSAVKLVGPEEALSPGEARDMAMDLCRQDPECEFYFSLDADAVLTNLQTLRILIEENRKVIAPMLSRHGKLWSNFWGALSPDEYYARSEDYVELVQRKRVGVWNVPYISQAYVIRGDTLRMELPQRDVFSGSDTDPDMAFCKSFRDKGIFLHLSNQHEFGRLLATSRYDTEHLHPDLWQIFDNPVDWKEQYIHENYSRALEGEGIVEQPCPDVYWFPLLSEQMCDELVAEMEHYGQWSGGRHEDSRLAGGYENVPTVDIHMKQVGYEDQWLQLLRTYVGPMTESLFPGYHTKARAVMNFVVRYRPDEQPSLRPHHDSSTFTLNVALNHKGLDYEGGGCRFLRYDCVISSPRKGWALLHPGRLTHYHEGLPTTWGTRYIMVSFVDP

Test system: KDM4A-I71AzF
Assay: CASI: photo-crosslinking with HEK293T cell extracts, StrepTactin enrichment and LC-MS/MS proteomics;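 note: lysates from HEK293T cells pretreated with a KDM4 inhibitor to raise proteome methylation, affinity-purified after ±UV, gel-resolved, trypsin-digested, with exclusive unique peptides per protein averaged per condition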
Type: binding, human
Conditions: sheet "Final results but with 0.01"

Molecule | Fold change (+UV/-UV)
B1 | 0.6667
B2 | 0.8
B3 | 4
B4 | 0.5
B5 | 2
B6 | 1.2
B7 | 0
